Test results reported in paper PMC11025326 (Journal of Bacteriology, 2024).

B1: 6xHisN-LapB^ΔTM (LapB^Δ1-22aa) (domain or fragment, S. Typhimurium, UniProt Q7CQG6 23-389, looked up)
chain: SAQQTKQDEANRLSRDYVAGVNFLLSNQQDKAVDLFLDMLKEDTGTVEAHLTLGNLFRSRGEVDRAIRIHQTLMESASLTYEQRLLAVQQLGRDYMAAGLYDRAEDMFNQLTDETEFRVGALQQLLQIYQLTSDWQKAIEVAERLVKLGKDKQRIEIAHFYCELALQQMGNDDMDRAMALLKKGAAADKNSARVSIMMGRVYMARGDYAKAVESLQRVIVQDKELVSETLEMLQTCYQQLGKNAEWAEFLRRAVEENTGAGAELMLADILEAREGSDAAQVYITRQLQRHPTMRVFHKLMDYHLNEAEEGRAKESLMVLRDMVGEQVRSKPRYRCQKCGFTAYTLYWHCPSCRAWSTIKPIRGLDGQ
notes: LPS assembly protein B (LapB/YciM), S. Typhimurium; transmembrane segment (residues 1-22) removed and replaced by an N-terminal polyhistidine tag; By calibrated gel filtration a homotrimer when alone, and two copies in the complex with one LpxC; also called 6xHisNLapB^Δ1-22; LapB cytosolic domain; source: E. coli BL21 (DE3), pACYC-Duet1, IPTG; in soluble lysate for the microscale co-purification; …
B2: LpxC^Δ293-305-S-Tag (enzyme)
chain: MIKQRTLKRIVQATGVGLHTGKKVTLTLRPAPANTGVIYRRTDLNPPVDFPADAKSVRDTMLCTCLVNEHDVRISTVEHLNAALAGLGIDNIVIEVNAPEIPIMDGSAAPFVYLLLDAGIDELNCAKKFVRIKETVRVEDGDKWAEFRPYNGFTLDFTIDFNHPAIDSSSQRYAMNFSADAFMRQISRARTFGFMRDIEYLQSRGLCLGGSFDCAIVVDDYRVLNEDGLRFEDEFVRHKMLDAIGDLFMCGHNIIGAFTAYKSGHALNNKLLQAVLAKQEAWEFVTFQDDAE
notes: not shown: S-tag, C-terminal, kept

Experiments:
[1] = molecular target: the molecule itself; experiment: SEC; calibrated Superdex 200 Increase 10/300 GL; co-purified LapB^ΔTM-LpxC^Δ293-305 complex, 0.5 mg/mL; 20 mM HEPES, 300 mM NaCl, 10% glycerol, 1 mM DTT, pH 7.0
[2] = molecular target: the molecule itself; experiment: SEC; calibrated Superdex 200 Increase 10/300 GL; purified LapB^ΔTM alone, 0.5 mg/mL; 20 mM HEPES, 300 mM NaCl, 10% glycerol, 1 mM DTT, pH 7.0
[3] = molecular target: B1; experiment: SEC; conditions: both partners purified

B1
stoichiometry N [1]: 2 | stoichiometry N [2]: 3

B2
stoichiometry N [3]: 0.5 LpxC per LapB chain
